What was measured:
Human VEGF-A 165 = Human VEGF-A 165 (human, UniProt P15692 207-395); assay: cell-based or functional assay
[1] = target: T1, recombinant human VEGF165 (human, UniProt P15692 207-395); assay: SPR (Biacore), antibody captured by anti-human Fc, hVEGF165 in solution
T1 construct: also called hVEGF165
Protocol: Unreacted moieties on the biosensor surface were blocked with ethanolamine. For kinetic analysis, rate equations derived from the 1:1 Langmuir binding model were fitted simultaneously to multiple antigen injections (using global fit analysis) with the use of Scrubber 2 (BioLogic Software), Biacore Biaevaluation 4.0.1 software or Biacore T100 Evaluation software. Purified antibodies or DVD-Ig molecules were diluted in running buffer for capture across goat anti-human Fc reaction surfaces. Antibodies or DVD-Ig molecules to be captured as a ligand (1 μg/ml) were injected over reaction matrices at a flow rate of 10 μl/minute. During the assay, all measurements were referenced against the capture surface alone (i.e., with no captured antibody or DVD-Ig molecule). […] The equilibrium dissociation constant KD (M) of the reaction between antibodies and the target antigen was then calculated from the kinetic rate constants by the following formula: KD=Koff/Kₒₙ. Binding was recorded as a function of time and kinetic rate constants were calculated. In this assay, on-rates as fast as 10⁶M⁻¹s⁻¹ and off-rates as slow as 10⁻⁶ s⁻¹ could be measured.
Affinity matured humanized anti-VEGF antibodies were characterized for hVEGF₁₆₅ binding and potency. Binding affinity of these molecules to hVEGF₁₆₅ was determined by Biacore analysis (Example 1.1). Potency was evaluated in both cell-based and ELISA formats. The ability to block binding of hVEGF₁₆₅ to hVEGFR2 was evaluated in a competition ELISA (Example 1.4) Inhibition of hVEGF₁₆₅-induced cell proliferation was assessed using HMVEC-d cells (Example 1.10).

VEGF-A = VEGF-A (UniProt P15692-4 27-191, limits assumed); assay: SPR (Biacore), DVD-Ig captured by anti-human Fc, antigen injected
Sequence of VEGF-A (P15692 other isoform, or with tags, fused parts or gaps limits assumed): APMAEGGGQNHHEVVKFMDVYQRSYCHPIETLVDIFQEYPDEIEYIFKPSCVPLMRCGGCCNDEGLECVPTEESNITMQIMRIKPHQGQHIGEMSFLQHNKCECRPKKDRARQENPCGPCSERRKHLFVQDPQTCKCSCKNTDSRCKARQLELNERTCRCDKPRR
Outline: (§1)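 Antibodies or DVD-Ig molecules (1 μg/ml) were captured on an anti-human Fc CM5 surface, with antigen injected in solution and responses referenced to the capture-only surface. Rate constants came from a global 1:1 Langmuir fit, and KD = koff/kon.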

PDGF-BB = PDGF-BB (UniProt P01127 82-190); assay: as above
Sequence of PDGF-BB (P01127 82-190): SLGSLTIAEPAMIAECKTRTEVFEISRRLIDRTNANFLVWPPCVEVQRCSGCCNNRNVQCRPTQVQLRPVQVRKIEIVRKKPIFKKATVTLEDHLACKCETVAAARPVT
Outline: as §1

Sequence of Human VEGF-A 165 (P15692 other isoform, or with tags, fused parts or gaps limits assumed): as the sequence (P15692 other isoform, or with tags, fused parts or gaps limits assumed) above
T1 sequence (P15692 other isoform, or with tags, fused parts or gaps limits assumed): as above

Row | hVEGF165 IC50 (nM), HMVEC-d proliferation (Human VEGF-A 165) | Binder | other results
1 | 0.168 nM | hBEW-1B10.1 (antibody, V domains shown) VH: EVQLVESGGGLVQPGGSLRLSCAASGFSFSKYDMAWFRQAPGKGLEWVASITTSGVGTYYRDSVKGRFTVSRDNAKSTLYLQMNSLRAEDTAVYYCARGYGAMDAWGQGTTVTVSS VL: DIQMTQSPSSLSASVGDRVTITCKASQDIDDYLSWYQQKPGKSPKLVIYAATRLADGVPSRFSGSGSGTDYTLTISSLQPEDFATYYCLQSSSTPWTFGGGTKVEIK | –
2 | 0.222 nM | hBEW-1B10.2 (antibody, V domains shown) VH: EVQLVESGGGLVQPGGSLRLSCAASGFSFSKYDMAWFRQAPGKGLEWVASITTSGVGTYYRDSVKGRFTVSRDNAKNSLYLQMNSLRAEDTAVYYCARGYGAMDAWGQGTTVTVSS VL: DIQMTQSPSSLSASVGDRVTITCKASQDIDDYLSWYQQKPGKSPKLVIYAATRLADGVPSRFSGSGSGTDYTLTISSLQPEDFATYYCLQSSSTPWTFGGGTKVEIK | –
3 | 0.059 nM | hBEW-9A8.17 (antibody, V domains shown) VH: EIQLVQSGSELKKPGASVKVSCKASGYTFTNYGMYWVKQAPGQGLEYMGWINTETGKPIYADDFKGRFVFSLDTSVSTAYLQISSLKAEDTAVYYCARVDYDGSFWFAYWGQGTLVTVSS VL: ETVLTQSPATLSLSPGERATLSCRASESVSTVIHWYQQKPGQQPRLLIHGASNLESGVPARFSGSGSGTDFTLTISSLEPEDFAVYFCQQHWNDPPTFGQGTKLEIK | –
4 | – | CL-28815-IgG (EI version of parent mAb) (antibody, V domains shown, IgG format) VH: EVQLVQSGSELKKPGASVKVSCKASGYTFTNYGMYWVRQAPGQGLEWMGWINTETGKPTYADDFKGRFVFSLDTSVSTAYLQISSLKAEDTAVYYCARTNYYYRSYIFYFDYWGQGTMVTVSS VL: EIVLTQSPATLSLSPGERATLSCRASESVSTHMHWYQQKPGQAPRLLIYGASNLESGVPARFSGSGSGTDFTLTISSLEPEDFAVYFCQQSWNDPFTFGQGTKLEIK | Kd [1]: 0.012 nM; kon [1]: 9.2e+06 M⁻¹ s⁻¹
5 | 0.123 nM | hBEW-5C3.5 (antibody, V domains shown) VH: EIQLVQSGAEVKKPGSSVKVSCKASGYTFTNYGVYWVKQAPGQGLEYMGWINTETGKPTYADDFKGRFTFTLDKSTSTAYMELSSLRSEDTAVYFCARARQLDWFVYWGQGTLVTVSS VL: DTQLTQSPSSLSASVGDRVTISCRARESLTTSLSWFQQKPGKQPKLLIYGASKLESGVPSRFSGSGSGTDFTLTISSLQPEDFATYFCQQSWYDPPTFGGGTKVEIK | –
6 | > 2 nM | hBEW-5C3.6 (antibody, V domains shown) VH: EVQLVQSGAEVKKPGSSVKVSCKASGYTFTNYGVYWVRQAPGQGLEWMGWINTETGKPTYADDFKGRFTFTLDKSTSTAYMELSSLRSEDTAVYYCARARQLDWFVYWGQGTLVTVSS VL: DTQLTQSPSSLSASVGDRVTISCRARESLTTSLSWFQQKPGKQPKLLIYGASKLESGVPSRFSGSGSGTDFTLTISSLQPEDFATYFCQQSWYDPPTFGGGTKVEIK | –
7 | 0.205 nM | hBEW-1E3.3 (antibody, V domains shown) VH: EVQLVQSGAEVKKPGASVKVSCKASGYPFTNSGMYWVRQAPGQGLEWMGWINTEAGKPTYADDFKGRFTFTLDTSTSTAYLEIRSLRSDDTAVYYCARWGYISDNSYGWFDYWGQGTLVTVSS VL: ETVLTQSPATLSLSPGERATLSCRASEGVYSYMHWYQQKPGQQPRLLIYKASNLASGVPARFSGSGSGTDFTLTISSLEPEDFAVYFCHQNWNDPLTFGQGTKLEIK | –
8 | – | 3E2.1_GS_1B10.1 (PR-1612502) (bispecific antibody, human IgG1, kappa, L234A L235A, DVD-Ig: outer hBFU-3E2.1 (PDGF), inner hBEW-1B10.1 (VEGF), linkers GS-H10 / GS-L10(dR); Human IgG1 L234A, L235A, H435A with kappa light chain) heavy: EVQLVQSGAEVKKPGSSVKVSCKASGYTFTESYMYWVKQAPGQGLELIGRIDPEDGSTDYVEKFKNKATLTADKSTSTAYMELSSLRSEDTAVYFCARFGARSYFYPMDAWGQGTTVTVSSGGGGSGGGGSEVQLVESGGGLVQPGGSLRLSCAASGFSFSKYDMAWFRQAPGKGLEWVASITTSGVGTYYRDSVKGRFTVSRDNAKSTLYLQMNSLRAEDTAVYYCARGYGAMDAWGQGTTVTVSSASTKGPSVFPLAPSSKSTSGGTAALGCLVKDYFPEPVTVSWNSGALTSGVHTFPAVLQSSGLYSLSSVVTVPSSSLGTQTYICNVNHKPSNTKVDKKVEPKSCDKTHTCPPCPAPEAAGGPSVFLFPPKPKDTLMISRTPEVTCVVVDVSHEDPEVKFNWYVDGVEVHNAKTKPREEQYNSTYRVVSVLTVLHQDWLNGKEYKCKVSNKALPAPIEKTISKAKGQPREPQVYTLPPSREEMTKNQVSLTCLVKGFYPSDIAVEWESNGQPENNYKTTPPVLDSDGSFFLYSKLTVDKSRWQQGNVFSCSVMHEALHNAYTQKSLSLSPGK light: ETVLTQSPATLSLSPGERATLSCRASESVSTLMHWYQQKPGQQPRLLIYGASNLESGVPARFSGSGSGTDFTLTISSLEPEDFAVYFCQQSWNDPWTFGGGTKVEIKGGSGGGGSGGDIQMTQSPSSLSASVGDRVTITCKASQDIDDYLSWYQQKPGKSPKLVIYAATRLADGVPSRFSGSGSGTDYTLTISSLQPEDFATYYCLQSSSTPWTFGGGTKVEIKRTVAAPSVFIFPPSDEQLKSGTASVVCLLNNFYPREAKVQWKVDNALQSGNSQESVTEQDSKDSTYSLSSTLTLSKADYEKHKVYACEVTHQGLSSPVTKSFNRGEC | Kd (VEGF-A): 0.32 nM; kon (VEGF-A): 350000 M⁻¹ s⁻¹; Kd (PDGF-BB): 0.0018 nM; kon (PDGF-BB): 8.4e+07 M⁻¹ s⁻¹
9 | – | 3E2.1_GS_1E3.4 (PR-1613190) (bispecific antibody, human IgG1, kappa, L234A L235A, DVD-Ig: outer hBFU-3E2.1 (PDGF), inner hBEW-1E3.4 (VEGF), linkers GS-H10 / GS-L10(dR); Human IgG1 L234A, L235A, H435A with kappa light chain) heavy: EVQLVQSGAEVKKPGSSVKVSCKASGYTFTESYMYWVKQAPGQGLELIGRIDPEDGSTDYVEKFKNKATLTADKSTSTAYMELSSLRSEDTAVYFCARFGARSYFYPMDAWGQGTTVTVSSGGGGSGGGGSEIQLVQSGSELKKPGASVKVSCKASGYPFTNSGMYWVKQAPGQGLEYMGWINTEAGKPTYADDFKGRFVFSLDTSVSTAYLQISSLKAEDTAVYFCARWGYISDNSYGWFDYWGQGTLVTVSSASTKGPSVFPLAPSSKSTSGGTAALGCLVKDYFPEPVTVSWNSGALTSGVHTFPAVLQSSGLYSLSSVVTVPSSSLGTQTYICNVNHKPSNTKVDKKVEPKSCDKTHTCPPCPAPEAAGGPSVFLFPPKPKDTLMISRTPEVTCVVVDVSHEDPEVKFNWYVDGVEVHNAKTKPREEQYNSTYRVVSVLTVLHQDWLNGKEYKCKVSNKALPAPIEKTISKAKGQPREPQVYTLPPSREEMTKNQVSLTCLVKGFYPSDIAVEWESNGQPENNYKTTPPVLDSDGSFFLYSKLTVDKSRWQQGNVFSCSVMHEALHNAYTQKSLSLSPGK light: ETVLTQSPATLSLSPGERATLSCRASESVSTLMHWYQQKPGQQPRLLIYGASNLESGVPARFSGSGSGTDFTLTISSLEPEDFAVYFCQQSWNDPWTFGGGTKVEIKGGSGGGGSGGATQLTQSPSSLSASVGDRVTISCRASEGVYSYMHWYQQKPGKQPKLLIYKASNLASGVPSRFSGSGSGTDFTLTISSLQPEDFATYFCHQNWNDPLTFGQGTKLEIKRTVAAPSVFIFPPSDEQLKSGTASVVCLLNNFYPREAKVQWKVDNALQSGNSQESVTEQDSKDSTYSLSSTLTLSKADYEKHKVYACEVTHQGLSSPVTKSFNRGEC | Kd (VEGF-A): 0.26 nM; kon (VEGF-A): 360000 M⁻¹ s⁻¹; Kd (PDGF-BB): ≤ 0.0053 nM; kon (PDGF-BB): ≥ 9e+07 M⁻¹ s⁻¹
10 | 0.071 nM | hBEW-5C3.1 (antibody, V domains shown) VH: EIQLVQSGSELKKPGASVKVSCKASGYTFTNYGVYWVKQAPGQGLEYMGWINTETGKPTYADDFKGRFVFSLDTSVSTAYLQISSLKAEDTAVYYCARARQLDWFVYWGQGTLVTVSS VL: DTVLTQSPATLSLSPGERATLSCRARESLTTSLSWFQQKPGQQPRLLIYGASKLESGVPARFSGSGSGTDFTLTISSLEPEDFAVYFCQQSWYDPPTFGGGTKVEIK | –
11 | 0.162 nM | hBEW-5C3.2 (antibody, V domains shown) VH: EIQLVQSGAEVKKPGSSVKVSCKASGYTFTNYGVYWVKQAPGQGLEYMGWINTETGKPTYADDFKGRFTFTLDKSTSTAYMELSSLRSEDTAVYFCARARQLDWFVYWGQGTLVTVSS VL: DTVLTQSPATLSLSPGERATLSCRARESLTTSLSWFQQKPGQQPRLLIYGASKLESGVPARFSGSGSGTDFTLTISSLEPEDFAVYFCQQSWYDPPTFGGGTKVEIK | –
12 | > 2 nM | hBEW-5C3.3 (antibody, V domains shown) VH: EVQLVQSGAEVKKPGSSVKVSCKASGYTFTNYGVYWVRQAPGQGLEWMGWINTETGKPTYADDFKGRFTFTLDKSTSTAYMELSSLRSEDTAVYYCARARQLDWFVYWGQGTLVTVSS VL: DTVLTQSPATLSLSPGERATLSCRARESLTTSLSWFQQKPGQQPRLLIYGASKLESGVPARFSGSGSGTDFTLTISSLEPEDFAVYFCQQSWYDPPTFGGGTKVEIK | –
13 | 0.098 nM | hBEW-5C3.4 (antibody, V domains shown) VH: EIQLVQSGSELKKPGASVKVSCKASGYTFTNYGVYWVKQAPGQGLEYMGWINTETGKPTYADDFKGRFVFSLDTSVSTAYLQISSLKAEDTAVYYCARARQLDWFVYWGQGTLVTVSS VL: DTQLTQSPSSLSASVGDRVTISCRARESLTTSLSWFQQKPGKQPKLLIYGASKLESGVPSRFSGSGSGTDFTLTISSLQPEDFATYFCQQSWYDPPTFGGGTKVEIK | –
